Test system: MS2 coat protein
Assay: apparent KD of MS2 coat protein; designed switch direction (-1 OFF switch, 1 ON switch): -1; higher = weaker reporter binding
Outline: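 Apparent KD, taken as the median over clusters for each design, was obtained by curve-fitting normalised cluster fluorescence. Designed RNA switches had been transcribed on Illumina chips by stalled E. coli RNA polymerase and titrated with SNAP-549-labelled MS2 coat protein, doubling from 0.7 or 1.5 nM to 3 µM.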

[1] = Eterna round: R95, input ligand: microRNA oligo, concentration not stated
[2] = Eterna round: R95, input ligand: FMN 200 uM
[3] = Eterna round: R95, input ligand: none

Sequence	apparent KD of MS2 coat protein (input ligand: FMN 200 uM)	apparent KD of MS2 coat protein (input ligand: none)	apparent KD of MS2 coat protein [1]	also measured
UGAUCUAGCGGAGGAUAUACAUGAGGAUCACCCAUGUAUAGUCUAUGACCGUAGUCGUGGACCGUGUAGAAGGCCGCUAGAUCU [JL ENG2 3.77] (Eterna round: R96, puzzle: Exclusion NG 2)	16.5 nM	11 nM		apparent KD of MS2 coat protein (input ligand: microRNA oligo, concentration not stated): 11.4 nM
UGAUCUUGAGUCAGGAUAUGCUGGUUUUUUUUUUAGCAGAAGGGACAUGAGGAUCACCCAUGUUCUCACUUUUU [Magic-12] (puzzle: Brourd's mod of Exclusion 4)			16.8 nM	
UGAUGCUCAGGAUAUACAUCAGUGUUCAGGCCAAAAGGCGGACAUGAGGAUCACCCAUGUAGAAGGGAGCGUUC [Eternabot (L1) Solution 13] (Eterna round: R97, puzzle: Exclusion 2)	900 nM	380 nM		
UGAUGUUGAUAGGAUAUACAGGUAGGAGUAGGAGUAGAAGGAUCUACAUGAGGAUCACCCAUGUAGGAGUGAGA [JR_E6_Sub001] (puzzle: Exclusion 6)			12.5 nM	apparent KD of MS2 coat protein [2]: 21.7 nM; apparent KD of MS2 coat protein [3]: 16.4 nM
UGAUUGUUUACCAGGUUAUACAUGAGGAUCACCCAUGUAGAUCCUACGUGCACGUUAUACCGCUCGUCUUAUUCCCA [Sensor-V1 #76] (Eterna round: R97, puzzle: Sensor, turn-off variant 1)	21.4 nM	20.7 nM		
UGCAGACGAGGAUAUAAACGAUAUAACAUGAGGAUCACCCAUGUACGAUCGAUAGAUCGUUUAGAAGGCGUCUGCA [E5/9-A2] (Eterna round: R97, puzzle: Exclusion 5)	12.8 nM	14.5 nM		
UGCAGACGAGGAUAUAAACGAUAUAACAUGAGGAUCACCCAUGUACGAUCGAUAGAUCGUUUAGAAGGCGUCUGCU [E5/9-A3] (Eterna round: R97, puzzle: Exclusion 5)	14.5 nM	14.1 nM		
UGCAGACGAGGAUAUAAAUUUGAUAACAUGAGGAUCACCCAUGUGAUCGAUAGAUCAAAUUUAGAAGGUGUCUGCA [E5/7-B2] (Eterna round: R97, puzzle: Exclusion 5)	443 nM	576 nM		
UGCAGACGAGGAUAUAGAUUUAAGUACAUGAGGAUCACCCAUGUACAUAUGUAUUUAGAUUUAGAAGGCGUCUGCA [E5/16-A2] (Eterna round: R97, puzzle: Exclusion 5)	28.2 nM	27.7 nM		
UGCAGACGAGGAUAUAGAUUUAGAUACAUGAGGAUCACCCAUGUAUAGAUGUAUUUAGAUUUAGAAGGCGUCUGCA [E5/13-A1] (Eterna round: R97, puzzle: Exclusion 5)	401 nM	305 nM		
UGCAGACGAGGAUAUAGAUUUGAUAACAUGAGGAUCACCCAUGUGAUCGAUAGAUCAGAUUUAGAAGGCGUCUGCU [E5/8-A4] (Eterna round: R97, puzzle: Exclusion 5)	586 nM	715 nM		
UGCAUCUGAGGAUAUCACAUGUGGAACAUGAGGAUCACCCAUGUGAUCCACAUGCCGUUGUGAGAAGGCAGUAAAA [Isteon] (puzzle: Exclusion 5)			268 nM	
UGCAUGCUAGGAUAUACGAAACAUUAGGGUUCUUUGUGUGAACAUGAGGAUCACCCAUGUAGAAGGAGCGUGCU [Mod8 of JL-ex2-2.15 mat747 mod] (puzzle: Exclusion 2)			127 nM	
UGCAUGCUAGGAUAUACGGGACAUUAGGGUUCGUUGUGUGGACAUGAGGAUCACCCAUGUAGAAGGAGCGUGCU [Mod of JL-ex2-2.15 mat747 mod] (puzzle: Exclusion 2)			69.3 nM	
UGCAUGCUAGGAUAUACGGGACAUUAGGGUUUGUCGUGUGGACAUGAGGAUCACCCAUGUAGAAGGAGCGUGCU [Mod2 of JL-ex2-2.15 mat747 mod] (puzzle: Exclusion 2)			43.6 nM	
UGCAUGCUAGGAUAUGCCGAGGAGAACAUGAGGAUCACCCAUGUGACCCGGAUGCCUUGAGCAGAAGGAGCUACUA [EX5 C.19] (Eterna round: R97, puzzle: Exclusion 5)	22.4 nM	15.2 nM		
UGCAUGUGAGGAUAUGUGUACUGUCUUUUGUUUAGAUGUACACAGAAGGCACAUGAGGAUCACCCAUGUAGUAC [Ex4 - 3 - 34] (puzzle: Exclusion 4)			59.1 nM	
UGCCGUAGAGGAUAUACAUUGAAAUAGAUUCAUGUAAAACUACAUGAGGAUCACCCAUGUAGAAGGCUAUGGCU [JL-ex2-4.34 Eli mod] (Eterna round: R97, puzzle: Exclusion 2)	68.4 nM	23 nM		

Sequence	apparent KD of MS2 coat protein (input ligand: FMN 200 uM)	apparent KD of MS2 coat protein (input ligand: none)	apparent KD of MS2 coat protein [1]	also measured
UGCCGUAGAGGAUAUACAUUGAAUAAGAUUCAUGUAAAACUACAUGAGGAUCACCCAUGUAGAAGGCUAUGGCU [JL-ex2-4.37 Eli mod] (Eterna round: R97, puzzle: Exclusion 2)	38.6 nM	14.7 nM		
UGCCUACAUGAGGAUCACCCAUGUGAGGAUAUCCUGCGAGGAUCAAAAGAUCCUCGUGGGAGAAGGCACAUGAA [Omei Ex1 B1] (Eterna round: R97, puzzle: Exclusion 1)	146 nM	38.5 nM		
UGCCUUUGAGGAUAUACAUAGAAAUAGAUUCAUGUAAAACUACAUGAGGAUCACCCAUGUAGAAGGCAAGGGCU [Mat - Exclusion 2 - JL Mod - D52] (Eterna round: R97, puzzle: Exclusion 2)	83.6 nM	24 nM		
UGCGUUAGAGGAUAUACGUAGAACUAGGUUCAUGUAAAACUACAUGAGGAUCACCCAUGUAGAAGGCUAGCGCU [Mat - Exclusion 2 - JL Mod - D43] (Eterna round: R97, puzzle: Exclusion 2)	20.4 nM	15.4 nM		
UGCUACGGAGGAUAUACAUGAGGAUCACCCAUGUGUGAGAUUUGGCCGAGAGGCCAAUGUAGAAGGCCGUAGCU [jl-ex3-4.20 jl mod] (Eterna round: R97, puzzle: Exclusion 3)	371 nM	35.9 nM		
UGCUAGUCAGGAUAUACGAACAUGUCAAAAGACGUGAAGGGACAUGAGGAUCACCCAUGUAGAAGGGACUAGCG [salish99_ex2_r3_007] (puzzle: Exclusion 2)			27.2 nM	apparent KD of MS2 coat protein [2]: 144 nM; apparent KD of MS2 coat protein [3]: 27.9 nM
UGGCGUUAAGGAUAUACAUGAGGAUCACCCAUGUUUCGGGAGAGCCAUUGAGCCGCAAGUAGAAGGUAGUACCC [Eternabot (L2) Solution 23] (Eterna round: R97, puzzle: Exclusion 3)	37.4 nM	47.9 nM		
UGGCUAAGAGGAUAUACAUUGAAUAAGAUUCAUGUAAAACUACAUGAGGAUCACCCAUGUAGAAGGCUUGGCCU [Mat - Exclusion 2 - JL Mod - D72] (Eterna round: R97, puzzle: Exclusion 2)	25.4 nM	17.4 nM		
UGGGUACUCCAUAGAAGAGACAUGAGGAUCACCCAUGUAGGACAAGCUUUUUGCUCGUCUUAAGAUGAGAGAUAGGA [JR_SV3TOV1_Sub013] (puzzle: Sensor v3, turn-off variant 1)			114 nM	apparent KD of MS2 coat protein [2]: 143 nM; apparent KD of MS2 coat protein [3]: 126 nM
UGGGUACUCCAUAGAAGAGACAUGAGGAUCACCCAUGUAGGGCAAGCUUUUUGCUCGUCUUAGGUUGAGGGAUAGGA [JR_SV3TOV1_Sub015] (puzzle: Sensor v3, turn-off variant 1)			80.7 nM	apparent KD of MS2 coat protein [2]: 166 nM; apparent KD of MS2 coat protein [3]: 280 nM
UGGUCACAUGAGGAUCACCCAUGUCAGGAUAUCGUCACUGGAGCUUCGGCUCCAGUGACGAGAAGGGACAUAAU [E1/6-A1] (Eterna round: R97, puzzle: Exclusion 1)	47 nM	394 nM		
UGGUGUGAAGGAUAUACAUGAGGAUCACCCAUGUAUGAGGUGGAGGUUGAGGUGGAGGGUAGAAGGUCAGGUGG [JR_Exclusion3_Sub012] (puzzle: Exclusion 3)			26.8 nM	
UGGUGUGAAGGAUAUACAUGAGGAUCACCCAUGUAUGUGGUGUGUGUUGAGGUGGAGGGUAGAAGGUCAGGUGG [JR_Exclusion3_Sub014] (puzzle: Exclusion 3)			35.9 nM	
UGUAACCUAGGAUAUACAUGAGGAUCACCCAUGUAAUGUAGUAUAGUGUGUGUAAGGUGUAGAAGGAGGAAUGU [LRO-Excl05-23-Smart Aleck] (Eterna round: R97, puzzle: Exclusion 3)	76.2 nM	52.6 nM		
UGUACGAUGCGUGCUGACAUGCGUCGUGCAGCAAGCUUUACAUGAGGAUCACCCAUGUCCUCACUUGCUCGUCUUGU (puzzle: Sensor v3, turn-off variant 2)			21.3 nM	apparent KD of MS2 coat protein [2]: 643 nM; apparent KD of MS2 coat protein [3]: 490 nM
UGUACGAUGCGUGCUGACAUGCGUCGUGCAGCAGGUGAUACAUGAGGAUCACCCAUGUCCUCAUUUGCUCGUCUUGA [Mat - Sensor v3 - Turn-off var 2 - D20] (puzzle: Sensor v3, turn-off variant 2)			475 nM	apparent KD of MS2 coat protein [2]: 68.5 nM; apparent KD of MS2 coat protein [3]: 75.2 nM
UGUACUAACACGAUAGUGUUAGUACAAUAAGCUUGUGUUACAUGAGGAUCACCCAUGUCCUCAUAAGCUCGUCUUAU [Mat - Sensor v3 - Turn-off var 2 - D55] (puzzle: Sensor v3, turn-off variant 2)			141 nM	apparent KD of MS2 coat protein [2]: 109 nM; apparent KD of MS2 coat protein [3]: 105 nM
UGUACUAACACGAUAGUGUUAGUACUAUAAGCUUGUGUUACAUGAGGAUCACCCAUGUCCUCAUAGGCUCGUCUUAU [Mat - Sensor v3 - Turn-off var 2 - D87] (puzzle: Sensor v3, turn-off variant 2)			47.5 nM	apparent KD of MS2 coat protein [2]: 646 nM; apparent KD of MS2 coat protein [3]: 446 nM
